Data: paper PMC2873993, “Comparative Therapeutic Effects of Velaglucerase Alfa and Imiglucerase in a Gaucher Disease Mouse Model” (PLoS ONE, 2010)
Residue numbers refer to the chain shown, from its start.

B1: velaglucerase alfa (protein)
chain: ARPCIPKSFGYSSVVCVCNATYCDSFDPPTFPALGTFSRYESTRSGRRMELSMGPIQANHTGTGLLLTLQPEQKFQKVKGFGGAMTDAAALNILALSPPAQNLLLKSYFSEEGIGYNIIRVPMASCDFSIRTYTYADTPDDFQLHNFSLPEEDTKLKIPLIHRALQLAQRPVSLLASPWTSPTWLKTNGAVNGKGSLKGQPGDIYHQTWARYFVKFLDAYAEHKLQFWAVTAENEPSAGLLSGYPFQCLGFTPEHQRDFIARDLGPTLANSTHHNVRLLMLDDQRLLLPHWAKVVLTDPEAAKYVHGIAVHWYLDFLAPAKATLGETHRLFPNTMLFASEACVGSKFWEQSVRLGSWDRGMQYSHSIITNLLYHVVGWTDWNLALNPEGGPNWVRNFVDSPIIVDITKDTFYKQPMFYHLGHFSKFIPEGSQRVGLVASQKNDLDAVALMHPDGSAVVVVLNRSSKDVPLTIKDPAVGFLETISPGYSIHTYLWRRQ
modifications: N-linked oligosaccharides with higher α-mannosyl content (predominant number of mannoses is 9)
B2: imiglucerase (protein)
chain: B1 chain with R495H
modifications: short N-linked oligosaccharide chains with ~3 exposed α-mannosyl residues

Assays:
[1] = GCase activity assay with 4MU-Glc substrate; assay type: biochemical; conditions: for GCase activity, 4MU-Glc: mean ± SE; for GCase activity, 4MU-Glc / Km: n = 6
Description: (§1) Vela and Imig were compared for kinetic properties as described. Briefly, the standard GCase activity assay contained final concentrations of 50 mM citrate/phosphate, pH 5.5, 0.25% TC, 0.25% TX, and 4 mM 4MU-Glc in 200 µl. The reactions were stopped after incubation (30–60 min, 37°C) using 0.9 M ethylenediamine, pH 11.0 (100 µl). Standard curves for 4-MU fluorescence yield were generated for each assay with Ex/Em 460/515 nm (Molecular Dynamics SpectraMax GeminXS spectrofluorometer). […] For the reversible competitive inhibitors, Ki was calculated from IC50 = Ki (1+ [I]/[Km]). The IC50 or Ki values for various inhibitors (dNM and its derivatives, CBE, CS, IFG, DNPFG) were determined using 4MU-Glc as substrate. Activities with the NBD-GC substrate were as described. Enzyme assays with saposin C (0–500 nM/0.5 µM BPS) and BPS (0–2 µM) were as described, [40]. Saposin C was expressed in E. coli and purified as described. For thermostability assessments, equal amounts of Vela and Imig activities were added to 50 mM citrate/phosphate, pH 7.4, with or without human/mouse serum, and incubated for 0–240 min at 25 or 37°C. The pH optimum profiles were developed using 50 mM citrate/phosphate, pH 4.4–7.2. Protease susceptibilities of the two GCases were evaluated by cathepsin D (1–2 µM) digestion in 25 mM sodium acetate, pH 4.8, 50 mM NaCl, 1.25 mM EDTA, 1.25 mM DTT using 200 ng of Vela or Imig at 37°C for 4 h. All assays were conducted in triplicate and repeated at least twice. The amounts of intact enzyme were determined from density measurements on immunoblots and were compared to the initial amounts. The ratios of intact enzyme with and without cathepsin D were used as indicators of the enzyme's proteolytic susceptibility.

[2] = pH- and thermostability of enzyme activity in buffer or serum; assay type: physicochemical; conditions: for irreversible loss of activity by 2 h / loss of activity by 4 h: pH 7.4, citrate/phosphate buffer or mouse or human serum, 37 or 25°C
Description: as §1

[3] = pH optimum profile of GCase activity; assay type: biochemical; conditions: profile pH 4.4–7.2
Description: as §1, with “For thermostability assessments, equal amounts of Vela and Imig activities were added to 50 mM citrate/phosphate, pH 7.4, with or without human/mouse serum, and incubated for 0–240 min at 25 or 37°C. The pH optimum profiles were developed using 50 mM citrate/phosphate, pH 4.4–7.2.” left out, “All assays were conducted in triplicate and repeated at least twice.” left out, “The ratios of intact enzyme with and without cathepsin D were used as indicators of the enzyme's proteolytic susceptibility.” left out

[4] = GCase activity assay with NBD-GC substrate; assay type: biochemical; conditions: mean ± SE, n = 10
Description: as §1, with “For thermostability assessments, equal amounts of Vela and Imig activities were added to 50 mM citrate/phosphate, pH 7.4, with or without human/mouse serum, and incubated for 0–240 min at 25 or 37°C. The pH optimum profiles were developed using 50 mM citrate/phosphate, pH 4.4–7.2.” left out, “All assays were conducted in triplicate and repeated at least twice.” left out, “The ratios of intact enzyme with and without cathepsin D were used as indicators of the enzyme's proteolytic susceptibility.” left out

[5] = test system: 9 V/null mice; assay: Storage cell quantification in liver and lung; assay type: in vivo, mouse; conditions: for numbers of storage cells in lungs (CD68): any dose
Text: (§2) Mice were sacrificed one week after the last injection, and sera and organs were collected for serologic studies, GCase activities, GC levels, and quantification of storage cells. At one week after the last injection, the GCase activities in liver, spleen, and lung had returned to background levels (not shown).
(§3) Mice were anesthetized with isoflurane.
Duplicate tissue sections were fixed in 10% formalin for hematoxylin and eosin (H&E) staining and in 4% paraformaldehyde-PBS, pH 7.4 for immunohistochemistry with CD68 antibody and examined using a Zeiss microscope equipped with SPOT Advance software (SPOT Diagnostic Instruments, Inc.). […] Mice (n = 6–14) in the Vela-, Imig-, or saline-treated groups were used, and the resultant data were analyzed using the Student's t-test.

[6] = molecular target: T1, saposin C (Homo sapiens, UniProt P07602); assay: Activation of GCase by saposin C in detergent-free system; assay type: biochemical; conditions: for saposin C concentration of maximum activation: in the presence of 0.5 µM BPS; for increase of activity with saposin C: saposin C 0 to 500 nM, detergent-free
T1 construct: Saposin C was expressed in E. coli and purified as described [40]; made in house; host or cells: E. coli
T1 sequence (P07602 311-390 limits assumed): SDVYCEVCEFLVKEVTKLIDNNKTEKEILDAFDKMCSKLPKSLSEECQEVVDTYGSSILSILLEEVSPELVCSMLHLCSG
Description: (§4) Activation of Vela and Imig by the negatively charged lipid, BPS, and saposin C was determined in a detergent-free system with varying concentrations of either agent. The activities of both enzymes increased by 5- to 6-fold or 15- to 17-fold with saposin C (0 to 500 nM) or BPS (0 to 2 µM), respectively. […] Similarly, in the absence of saposin C, both enzymes reacted maximal activation with 0.5 µM of BPS. No significant differences were found in these responses (p = 0.5875–0.8473).
as §1

[7] = test system: 9 V/null mice; assay: GC levels in liver, spleen and lung after weekly enzyme injections; assay type: in vivo, mouse; conditions: for GC lipid levels in lung: 5 and 15 U/kg/wk; for reduction of GC levels in liver: 15 U/kg/wk (before 8 wks); for decrease of GC in lung (suggested trend): variable; for reduction of GC levels in spleen: all three dosing groups; for reduction of GC levels and storage cell numbers in livers / reduction of GC levels and storage cell numbers in spleens: dose dependent, 5, 15 or 60 U/kg/wk, abstract
Text: as §2, §3
GC levels in liver, lung, and spleen from 9 V/null and WT mice were quantified by LC/MS-MS (Lipidomic Core, University of South Carolina). The GC levels were normalized to protein in the same lysates used for GCase activity and expressed as the percentage change relative to the GC levels of matched samples from saline-injected mice. WT lysates were used as a reference. The Student's t-test was used for statistical comparisons.

[8] = test system: 9 V/null mice; assay: Injection-related deaths; assay type: in vivo, mouse; conditions: 60 U/kg once a week for 8 weeks
Description: With additional injections, IgG positivity increased in all dosing groups and several mice died. With the 5 or 15 U/kg/wk doses only a few mice died, whereas with 60 U/kg/wk doses, 9/42 Vela-injected and 20/59 Imig-injected mice died following injections during the 4- to 8-wk period (Table 5). Prior to death, these mice became immobile and their lips/tails became cyanotic. Most mice died within 30 to 60 min post-injection. However, placing treated mice in an oxygen chamber for 20 to 30 min after injection led to the survival of most of the animals. The mice that succumbed were immediately dissected, and sera were analyzed for IgE titers and histology. […] Total serum IgE levels from these mice injected with Vela or Imig were 46.4 to 234.9 ng/ml (n = 3) or 115.8 to 239.6 ng/ml (n = 3), respectively (p = 0.3626). In comparison, saline-injected 9 V/null serum values were 6.8 to 8.8 ng/ml (n = 6) (Fig. 7B).
as §3

[9] = Quantification of functional active sites with single turnover substrate DNPFG; assay type: biochemical; conditions: for Active sites, 2,4-DNPFG: mole ratio of 2,4-DNP released and enzyme protein, mean ± SE, n = 8
Description: Catalytic activities of Vela and Imig were analyzed with 4MU-Glc and GC substrates. Vela had ∼6–10% reproducibly greater activity compared to Imig (Table 1). The functional active sites of these two enzymes were quantified using the single turnover substrate DNPFG, and consistent with the hydrolytic activity, ∼5–7% more functional active sites were quantified with Vela than with Imig (Table 1).
as §1, with “The ratios of intact enzyme with and without cathepsin D were used as indicators of the enzyme's proteolytic susceptibility.” left out

[10] = Activation of GCase by BPS in detergent-free system; assay type: biochemical; conditions: for increase of activity with BPS: BPS 0 to 2 µM, detergent-free; for BPS concentration of maximal activation: in the absence of saposin C
Description: as §4, §1

[11] = 5 or 15 U/kg/wk, week 4 or 8, compared to saline-injected controls

Molecule	GCase activity, 4MU-Glc [1]	Km [1] [µM]	t1/2 of GCase activity ([2]; 25°C + h-serum) [h]	t1/2 of GCase activity ([2]; 25°C + m-serum) [h]	t1/2 of GCase activity ([2]; 25°C in CP, pH 7.4) [h]	t1/2 of GCase activity ([2]; 37°C + h-serum) [h]	t1/2 of GCase activity ([2]; 37°C + m-serum) [h]	t1/2 of GCase activity ([2]; 37°C in CP, pH 7.4) [h]	irreversible loss of activity by 2 h [2] [%]	loss of activity by 4 h [2]	pH of peak activity [3]	GCase activity, NBD-GC [4]	numbers of storage cells in lungs (CD68) [5]	saposin C concentration of maximum activation [6] [nM]	increase of activity with saposin C [6]	GC lipid levels in lung [7]	decrease of GC levels in liver [7, 11]	reduction of GC levels in liver [7] [%]	decrease of GC in lung (suggested trend) ([7]; 60 U/kg/wk, 8 wks) [%]	decrease of GC levels in liver ([7]; 60 U/kg/wk, week 4) [%]	further results
B1	1,030,480±2,692 nmole/h/mg	1590 ± 200	2.933 ± 0.0978	3.235 ± 0.102	1.977 ± 0.0318	2.117 ± 0.169	2.31 ± 0.0637	1.82 ± 0.0025	> 50	70–85%	5.4–5.6	1,321,057±67,237 nmole/h/mg	not different from saline control	200	5- to 6 fold	unchanged	50–70%	~66	~10	~85	greater activity compared to Imig ([1]; 4MU-Glc and GC substrates): 6–10%; difference in cellular clearance compared to Imig ([5]; lungs, Gaucher cells, not significant): ~10%; reduction of GC levels in spleen ([7]; 4 wks): 10–15%; reduction of GC levels in spleen ([7]; 8 wks): 20–30%; reduction of GC levels and storage cell numbers in livers [7]: 60–95%; reduction of GC levels and storage cell numbers in spleens [7]: 10–30%; Death (%) of total injected mice ([8]; No-oxygen): 22.6%; Death, number of mice ([8]; No-oxygen): 7; Death (%) of total injected mice ([8]; Oxygen chamber minimum 20 min): 18.2%; Death, number of mice ([8]; Oxygen chamber minimum 20 min): 2; Death (%) of total injected mice ([8]; Total number): 21%; Death, number of mice ([8]; Total number): 9; more functional active sites than Imig ([9]; DNPFG): 5–7%; Active sites, 2,4-DNPFG [9]: 97.4±0.6%; increase of activity with BPS [10]: 15- to 17 fold; BPS concentration of maximal activation [10]: 0.5 µM
B2	966,000±8,467 nmole/h/mg	1650 ± 250	3.107 ± 0.106	3.587 ± 0.253	2.04 ± 0.129	2.125 ± 0.169	2.455 ± 0.124	1.858 ± 0.0413	> 50	70–85%	5.4–5.6	1,191,610±56,390 nmole/h/mg	not different from saline control	200	5- to 6 fold	unchanged	50–70%	~55	~10	~70	reduction of GC levels in spleen ([7]; 4 wks): 10–15%; reduction of GC levels in spleen ([7]; 8 wks): 20–30%; reduction of GC levels and storage cell numbers in livers [7]: 60–95%; reduction of GC levels and storage cell numbers in spleens [7]: 10–30%; Death (%) of total injected mice ([8]; No-oxygen): 48.4%; Death, number of mice ([8]; No-oxygen): 15; Death (%) of total injected mice ([8]; Oxygen chamber minimum 20 min): 17.9%; Death, number of mice ([8]; Oxygen chamber minimum 20 min): 5; Death (%) of total injected mice ([8]; Total number): 34%; Death, number of mice ([8]; Total number): 20; Active sites, 2,4-DNPFG [9]: 91.6±2.2%; increase of activity with BPS [10]: 15- to 17 fold; BPS concentration of maximal activation [10]: 0.5 µM
